In the supplement of paper PMC9233669:
Fewer inactive variants are shown than the library holds.

Legend:
biotinyl-Met-oxazolone = assay: self-aminoacylation, catalytic enhancement (BMO) (fold over background); higher = more active; k-Seq, kA / k0A0; sequences stand for … in GGGAAUGGAUCCACAUCUACGAAUUC…UUCACUGCAGACUUGACGAAGCUG
Procedure, shortened: (§1)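 Mutagenized RNA pools with a 21-nt variable region (0.43 μM) were reacted with each biotinyl-aminoacyl-oxazolone at 2–1250 μM for 90 minutes at room temperature, in 50 μL HEPES/NaCl/KCl/MgCl2/CaCl2 buffer containing 5% acetonitrile at pH 6.9–7.0. RNA captured on streptavidin was quantified by triplicate qPCR and by Illumina sequencing. The fraction reacted for each sequence was fit to a pseudo-first-order model with bootstrapping, and catalytic enhancement is the median kA divided by the uncatalyzed rate, taken as the low-activity peak of a bimodal Gaussian fit.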

biotinyl-Trp-oxazolone = assay: self-aminoacylation, catalytic enhancement (BWO) (fold over background); higher = more active; k-Seq, kA / k0A0; sequences stand for … in GGGAAUGGAUCCACAUCUACGAAUUC…UUCACUGCAGACUUGACGAAGCUG
Procedure, shortened: as §1

biotinyl-Val-oxazolone = assay: self-aminoacylation, catalytic enhancement (BVO) (fold over background); higher = more active; k-Seq, kA / k0A0; sequences stand for … in GGGAAUGGAUCCACAUCUACGAAUUC…UUCACUGCAGACUUGACGAAGCUG
Procedure, shortened: as §1

biotinyl-Phe-oxazolone = assay: self-aminoacylation, catalytic enhancement (BFO) (fold over background); higher = more active; k-Seq, kA / k0A0; sequences stand for … in GGGAAUGGAUCCACAUCUACGAAUUC…UUCACUGCAGACUUGACGAAGCUG
Procedure, shortened: as §1

biotinyl-Ile-oxazolone = assay: self-aminoacylation, catalytic enhancement (BIO) (fold over background); higher = more active; k-Seq, kA / k0A0; sequences stand for … in GGGAAUGGAUCCACAUCUACGAAUUC…UUCACUGCAGACUUGACGAAGCUG
Procedure, shortened: as §1

biotinyl-Leu-oxazolone = assay: self-aminoacylation, catalytic enhancement (BLO) (fold over background); higher = more active; k-Seq, kA / k0A0; sequences stand for … in GGGAAUGGAUCCACAUCUACGAAUUC…UUCACUGCAGACUUGACGAAGCUG
Procedure, shortened: as §1

Row | Sequence | self-aminoacylation (biotinyl-Met-oxazolone) | self-aminoacylation (biotinyl-Trp-oxazolone) | self-aminoacylation (biotinyl-Val-oxazolone) | self-aminoacylation (biotinyl-Phe-oxazolone) | self-aminoacylation (biotinyl-Ile-oxazolone) | self-aminoacylation (biotinyl-Leu-oxazolone)
1 | UCACACUUCAAGAAAUCGGUC [Fam1B.1 aminoacylation ribozyme variant] | 0.819 | 6.06 | 0.888 | 7.38 | 0.947 | 0.906
2 | UCACACUUCAAGCAAACGGUC [Fam1B.1 aminoacylation ribozyme variant] | 0.682 | 0.586 | 0.792 | 0.679 | 0.639 | 0.506
3 | UCACACUUCAAGCAAUCGAUC [Fam1B.1 aminoacylation ribozyme variant] | 0.501 | 0.732 | 0.808 | 1.49 | 0.589 | 0.468
4 | UCACACUUCAAGCAAUCGGUA [Fam1B.1 aminoacylation ribozyme variant] | 1.1 | 1.49 | 1.12 | 1.13 | 0.993 | 1.04
5 | UCACACUUCAAGCAAUCGUUC [Fam1B.1 aminoacylation ribozyme variant] | 0.602 | 0.608 | 0.792 | 1.45 | 0.696 | 0.611
6 | UCACACUUCACGCAAUCGGUC [Fam1B.1 aminoacylation ribozyme variant] | 0.81 | 0.908 | 1.21 | 0.767 | 1.03 | 0.873
7 | UCACGCUUCAAGCAAUCGGUC [Fam1B.1 aminoacylation ribozyme variant] | 1.56 | 41.6 | 1.7 | 84.1 | 1.32 | 2.46
8 | UCCCACUUCAAGCAAUCGGUC [Fam1B.1 aminoacylation ribozyme variant] | 1.46 | 22.3 | 1.73 | 37 | 1.28 | 1.59
9 | UCUCACCUAGGUCAUCGGGUG [Fam2.2 aminoacylation ribozyme variant] | 3.73 | 3.84 | 3.09 | 16.1 | 2.33 | 3.81
10 | UCUCACUUCAAGCAAUCGGUC [Fam1B.1 aminoacylation ribozyme variant] | 1.15 | 21.5 | 1.35 | 44.5 | 1.23 | 1.71
11 | UGACACUUCAAGCAAUCGGUC [Fam1B.1 aminoacylation ribozyme variant] | 1.33 | 14.5 | 1.37 | 21.5 | 1.84 | 1.89
12 | UUACGUCAAACAAUCGGUCUG [Fam1A.1 aminoacylation ribozyme variant] | 1.99 | 2.38 | 1.68 | 6.37 | 1.98 | 1.58
13 | UUACUUCAAACAAUCGAUCUG [Fam1A.1 aminoacylation ribozyme variant] | 0.711 | 0.866 | 0.719 | 1.8 | 0.852 | 0.824
14 | UUACUUCAAACAAUCGGGCUG [Fam1A.1 aminoacylation ribozyme variant] | 1.93 | 7.54 | 1.66 | 8.04 | 1.76 | 2.22
15 | UUACUUCAAACAAUCGGUUUG [Fam1A.1 aminoacylation ribozyme variant] | 1.48 | 20.3 | 1.24 | 31.5 | 1.59 | 1.86
16 | UUACUUCAAAGAAUCGGUCUG [Fam1A.1 aminoacylation ribozyme variant] | 1.24 | 2.03 | 1.08 | 2.71 | 1.34 | 1.57
17 | UUACUUGAAACAAUCGGUCUG [Fam1A.1 aminoacylation ribozyme variant] | 1.32 | 0.889 | 1.03 | 1.52 | 1.15 | 1.11
18 | UUCCUUCAAACAAUCGGUCUG [Fam1A.1 aminoacylation ribozyme variant] | 0.806 | 4.06 | 0.647 | 5.13 | 0.784 | 0.937
19 | UUGUUUGCUAAUAGUCGCAAG [Fam3.1 aminoacylation ribozyme variant] | 1.33 | 3.52 | 1.42 | 9.39 | 1.41 | 1.24

Row | Sequence | self-aminoacylation (biotinyl-Met-oxazolone) | self-aminoacylation (biotinyl-Trp-oxazolone) | self-aminoacylation (biotinyl-Val-oxazolone) | self-aminoacylation (biotinyl-Phe-oxazolone) | self-aminoacylation (biotinyl-Ile-oxazolone) | self-aminoacylation (biotinyl-Leu-oxazolone)
20 | UUUACCCUGAUCAUCGAGUGA [Fam2.1 aminoacylation ribozyme variant] | 8.08 | 9.79 | 4.05 | 23.3 | 3.92 | 7.11
21 | UUUACCCUGCUCAUCGAGUGA [Fam2.1 aminoacylation ribozyme variant] | 2.03 | 3.13 | 1.54 | 8.11 | 1.28 | 2.15
22 | UUUACCCUGGUCAGCGAGUGA [Fam2.1 aminoacylation ribozyme variant] | 5.62 | 7.06 | 2.96 | 16.3 | 3.46 | 5.43
23 | UUUACCCUGGUCAUAGAGUGA [Fam2.1 aminoacylation ribozyme variant] | 5.18 | 7.54 | 3.07 | 27.7 | 2.89 | 5.87
24 | UUUACCCUGGUCAUCGAGUAA [Fam2.1 aminoacylation ribozyme variant] | 13.9 | 11.8 | 5.3 | 30.5 | 4.45 | 11.7
25 | UUUACCCUGGUCAUCGAGUGA [Fam2.1 aminoacylation ribozyme variant] | 68.9 | 71.3 | 27 | 428 | 24.6 | 60.9
26 | UUUACCCUGGUCAUCGGGUGA [Fam2.1 aminoacylation ribozyme variant] | 37.3 | 40.3 | 16.7 | 221 | 15.2 | 37.2
27 | UUUACCCUGGUGAUCGAGUGA [Fam2.1 aminoacylation ribozyme variant] | 6.47 | 7.87 | 3.51 | 28.6 | 3.39 | 6.55
28 | UUUAGCCUGGUCAUCGAGUGA [Fam2.1 aminoacylation ribozyme variant] | 5.59 | 7 | 4.28 | 21.9 | 4.42 | 5.82
29 | UUUAUCCUGGUCAUCGAGUGA [Fam2.1 aminoacylation ribozyme variant] | 8.6 | 11.3 | 4.7 | 10.2 | 5.25 | 9.68
30 | UUUCAACUAGGUCAUCGGGUG [Fam2.2 aminoacylation ribozyme variant] | 5.1 | 5.22 | 3.67 | 35.7 | 3.58 | 5.6
31 | UUUCACCUAAGUCAUCGGGUG [Fam2.2 aminoacylation ribozyme variant] | 7.38 | 8.11 | 5.74 | 51.6 | 5.08 | 9.35
32 | UUUCACCUAGGUCAGCGGGUG [Fam2.2 aminoacylation ribozyme variant] | 4.92 | 5.12 | 3.92 | 24.2 | 3.75 | 5.53
33 | UUUCACCUAGGUCAUAGGGUG [Fam2.2 aminoacylation ribozyme variant] | 1.28 | 1.23 | 1.3 | 1.69 | 1.41 | 1.38
34 | UUUCACCUAGGUCAUCGCGUG [Fam2.2 aminoacylation ribozyme variant] | 9.16 | 9.42 | 6.67 | 84 | 6.66 | 11.4
35 | UUUCACCUAGGUCAUCGGAUG [Fam2.2 aminoacylation ribozyme variant] | 0.898 | 1.12 | 1.36 | 0.842 | 1.1 | 0.998
36 | UUUCACCUAGGUCAUGGGGUG [Fam2.2 aminoacylation ribozyme variant] | 3.8 | 4.25 | 2.96 | 29.1 | 3.19 | 4.07
37 | UUUCACCUAUGUCAUCGGGUG [Fam2.2 aminoacylation ribozyme variant] | 4.6 | 5.28 | 3.56 | 31.4 | 3.35 | 5.1
